Experimental findings from patent publication US20090246205A1 (Eli Lilly, published 2009) are described below.

In assay [1] the target is T1, Recombinant RON-Fc (human, UniProt Q04912 25-571).
T1 construct: also called recombinant human RON receptor; MSP-R; not shown: Fc part of the bought RON-Fc (Sigma-Aldrich)
T1 sequence (looked up): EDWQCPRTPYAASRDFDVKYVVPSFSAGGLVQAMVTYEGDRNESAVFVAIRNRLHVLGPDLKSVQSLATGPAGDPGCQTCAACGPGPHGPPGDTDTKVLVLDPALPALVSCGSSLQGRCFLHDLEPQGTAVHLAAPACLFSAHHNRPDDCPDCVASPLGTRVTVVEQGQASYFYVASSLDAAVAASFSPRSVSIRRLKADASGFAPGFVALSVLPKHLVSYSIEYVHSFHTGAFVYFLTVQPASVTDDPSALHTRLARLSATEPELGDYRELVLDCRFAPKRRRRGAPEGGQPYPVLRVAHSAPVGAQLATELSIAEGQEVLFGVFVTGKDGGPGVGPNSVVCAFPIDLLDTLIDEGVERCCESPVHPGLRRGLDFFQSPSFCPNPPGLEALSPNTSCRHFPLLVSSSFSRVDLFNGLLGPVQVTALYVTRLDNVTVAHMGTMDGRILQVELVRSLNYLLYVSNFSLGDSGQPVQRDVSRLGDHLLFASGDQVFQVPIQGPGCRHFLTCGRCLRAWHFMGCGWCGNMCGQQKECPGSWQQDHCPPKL
Description: ELISA, blocking of the MSP/RON interaction. The method, then: ELISA to Detect Fab Antibodies That Block the MSP/RON Interaction. Maxi-sorp 96-well microtiter plates (Nunc) were coated with (1 μg/ml×100 μl) MSP (R&D Systems) at RT for 1.5 hours. After washing the wells, they were blocked with 3% PBS/milk. Anti-RON phage antibodies that were converted to Fab or full IgG were pre-incubated with RON-Fc (25 ng/well) at RT for 1 hour. The Fab/RON-Fc or IgG/RON-Fc mixtures were then added to the MSP-coated wells and allowed to incubate for 1.5 h at RT.
ELISA for Determination of IC50 and ED50 The ability of the anti-RON antibodies, IMC-41A10 and IMC-41B12, to bind to recombinant human RON receptor and to block the MSP/RON interaction were measured using ELISA.

In assay [2] the target is T1, Recombinant RON-Fc. Description: BIAcore 3000 SPR, RON-Fc immobilized, Fab or antibody injected. The protocol: BIAcore-Analysis. The binding kinetics of soluble Fab and antibody proteins to RON was determined by using a BIACORE 3000 (BIAcore, Piscataway, N.J.). Recombinant RON-Fc was immobilized onto a sensor chip, and Fab or antibody was injected at various concentrations. Sensorgrams were obtained and evaluated using BIA Evaluation 2.0 software to determine rate constants. The affinity constant, KD, was calculated from the ratio of the rate constants Koff/Kₒₙ. The “Kon, M⁻¹.S⁻¹” and “Koff, S⁻¹” rates of the interaction were used to determine the affinity (Kd, M) of the antibody/receptor interaction. […] For IMC-41B12, they were: 1e-10, 1.7e6 and 1.7e-4.

The target of assay [3] is T1, Recombinant RON-Fc. Description: ELISA, recombinant human RON receptor immobilized on the plate.

B1: IMC-41B12 (antibody, V domains shown)
VH: QVQLQESGPGLVKPSEILSLTCTVSGGSISSHYWSWVRQPPGKGLEWIGYIYYSGSTNYNPSLKSRVTISVDTSKNQFSLNLSSVTAADTAVYYCARIPNYYDRSGYYPGYWYFDLWGRGTLVTVSS
VL: QAVLTQPSSLSAPPGASASLTCTLRSGFNVDSYRISWYQQKPGSPPQYLLRYKSDSDKQQGSGVPSRFSGSKDASANAGILLISGLQSEDEADYYCMIWHSSAWVFGGGTKLTVLR
notes: also called IMC-14B12
Regarding B1, the IC50 in assay [1] came to 2 nM. In assay [2], the Kd amounted to 0.1 nM, the koff is 0.00017 s⁻¹ and the kon came to 1.7e+06 M⁻¹ s⁻¹. Further, the concentration giving a half-maximal response (EC50) in assay [3] is 0.1 nM.

B2: IMC-41A10 (antibody, V domains shown)
VH: EVQLVQSGGGLVKPGGSLRLSCAASGFTFSSYAMHWVRQAPGKGLEWVAVISYDGSNKYYADSVKGRFTISRDNSKNTLYLQMNSLRAEDTAVYYCARFSGWPNNYYYYGMDVWGQGTTVTVSS
VL: DVVMTQSPLSLPVTPGEPASISCRSSQSLLHSNGFNYVDWYLQKPGQSPHLLIYFGSYRASGVPDRFSGSGSGTDFTLKISRVEAEDVGVYYCMQALQTPPWTFGQGTKVEIR
notes: also called anti-RON IMC-41A10 antibody; IMC-14A10
For B2, the concentration for half-maximal inhibition (IC50) in assay [1] came out at 2 nM. Further, in assay [2], the Kd is 1.5 nM, the off-rate (koff) came out at 0.00013 s⁻¹ and the on-rate constant (kon) was determined as 84000 M⁻¹ s⁻¹. Besides, the EC50 in assay [3] is 0.15 nM.
